Residue numbers refer to the chain shown, from its start. Values belong to the molecule of their own block, whether it stands above or below them.
Assay: Calibration of free NIR probe/sensor by bilirubin titration (cuvette fluorometry, fit with equation 1)
Type: binding
Settings: for Qs (Rm/Ro): degree to which the probe is quenched by bilirubin binding, effect of fluorophore position
From the text: Embodiments provided herein are directed to methods of calibrating the bilirubin probes by mixing in an aqueous media the sensor with samples of bilirubin of increasing total bilirubin concentrations (BT), measuring the ratio of fluorescence intensities R of the sensor at each concentration, and determining the calibration parameters (Kd, Rm, and Ro) from the measured fluorescence by fitting with the equation (1), wherein R is the measured fluorescence ratio (Iλ1/Iλ2), where hi is the fluorescence intensity from the first fluorophore at wavelength λ1 and Iλ2 is the fluorescence intensity from the second fluorophore at wavelength λ2, both λ1 and λ2 have background subtracted, and Ro is the ratio in the absence of bilirubin. BT is the total bilirubin concentration and PT is the concentration of the sensor, r is the Iλ2/Iλ1 ratio of the bilirubin sensitive probe's fluorescence in the absence of the second fluorophore, Kd is the equilibrium dissociation constant of the sensor and Rm is the ratio R extrapolated to infinite BT. Equation (1) is used in some embodiments rather than equation (5) of U.S. Pat. No. 9,529,003 when Rm is >0.
Also described are methods for calibrating and using a bilirubin sensor described herein so that Bf concentrations can be determined in approximately 5 μl of undiluted blood samples in a single step. These small volume blood samples are applied to the disposable plastic microfluidic cartridges containing the dried bilirubin ratio sensor. The bilirubin sensor containing cartridges are preferably used for a single measurement and the calibration parameters (Kd, Rm, Ro) must be determined within a “lot” of identically manufactured cartridges. The calibration is performed by titrating a sufficient number of cartridges with aqueous samples of increasing well-defined Bf levels. Because plastics bind unbound bilirubin and because surface to volume ratio in the microfluidics channel is large, the calibration Bf samples must be highly buffered by complexes with albumin. The Bf concentrations of each complex are determined by measuring each by cuvette fluorometry using a calibrated sensor free in aqueous solutions. The free sensor is calibrated by titration with aqueous solutions of bilirubin where the concentrations of these unbound bilirubin solutions are determined by absorbance. The free probe's response (R values versus Bf concentrations) are used to determine the free sensor's calibration (Kd, Rm, Ro) (equation 1). The calibrated free sensor mixed with samples of each of the BR:HSA complexes is used to determine the Bf concentrations of each complexes by cuvette fluorometry using equation 2. These calibrated complexes are used to determine the binding parameters of the disposable cartridges including the equilibrium dissociation constant (Kd), the minimum fluorescence ratio (Rm) and the initial ratio (Ro) under defined conditions, of temperature, pH, and solution composition, suitable for blood samples. Binding isotherms are performed in aqueous buffer by measuring the change in fluorescence of the bilirubin sensor in response to increasing bilirubin concentrations (“titration data”). The set of fluorescence responses at each bilirubin concentration are fitted with an appropriate equation (“calibration equation (3)”) that correctly describes the fluorescence response as a function of the Bf concentration, the, specific spectroscopic characteristics, and the Kd.
All responder probes labeled with LICOR 700DX-maleimide and non-responder probes labeled with LICOR 800CW-maleimide probes in Tables 1 and 2, respectively have qualitatively similar dependencies on Bf. The probes differ mostly in protein expression, binding parameters (Kd, Ro and Rm) and stability. […] Although the non-responders are not characterized by bilirubin binding parameters, the emission spectrum of the 800CW-maleimide is sensitive to specific substitutions that can alter the LICOR 700DX-maleimide intensities. […]

[1] = effect of fluorophore (cysteine) position, responder probe labeled with 700DX-maleimide
[2] = free Bf sensor, fit of equation 1 (FIG. 2)

B2: 97C-C2XH11-700DXM: rIFABP mutein MGI-KR14-14R 18L 27A 38V 60R 73F 97C 106L 115R 117D 131D-C2XH11 labeled with LICOR 700DX-maleimide (protein)
chain: MGIAFDGTWRVDRNENRERFLERMGINVVARRLGAHDNLRVTITQEGNRFTVRESSNFRNIDRVFELGVDFAYSLFDGTELTGTWTMEGNRLVGRFRRVCNGRELIAVLEISGNELIRTDTYEGVEARRIFRRDRGAASHHHHHHSHRATPNTSPHHHHHHH
modifications: LICOR 700DX-maleimide label; mutated bf sensitive probe
notes: rIFABP mutein MGI-KR14-14R 18L 27A 38V 60R 73F 97C 106L 115R 117D 131D-C2XH11 labeled with LICOR 700DX-maleimide
- Qs (Rm/Ro): 0.29
- Kd [1]: 25 nM

B4: 29C-C2XH11-700DXM: rIFABP mutein MGI-KR14-14R 18L 27A 29C 38V 60R 73F 106L 115R 117D 131D-C2XH11 labeled with LICOR 700DX-maleimide (protein)
chain: B2 chain with R32C, C100D
modifications: C2XH11 tag; LICOR 700DX-maleimide label; mutated bf sensitive probe
notes: rIFABP mutein MGI-KR14-14R 18L 27A 29C 38V 60R 73F 106L 115R 117D 131D-C2XH11 labeled with LICOR 700DX-maleimide
- Qs (Rm/Ro): 0.52
- Kd [1]: 29 nM

B6: 33C-C2XH11-700DXM: rIFABP mutein MGI-KR14-14R 18L 27A 33C 38V 60R 73F 106L 115R 117D 131D-C2XH11 labeled with LICOR 700DX-maleimide (protein)
chain: B2 chain with H36C, C100D
modifications: C2XH11 tag; LICOR 700DX-maleimide label; mutated bf sensitive probe
notes: rIFABP mutein MGI-KR14-14R 18L 27A 33C 38V 60R 73F 106L 115R 117D 131D-C2XH11 labeled with LICOR 700DX-maleimide
- Qs (Rm/Ro): 0.17
- Kd [1]: 25 nM

B7: 30C-C2XH11-700DXM: rIFABP mutein MGI-KR14-14R 18L 27A 30C 38V 60R 73F 106L 115R 117D 131D-C2XH11 labeled with LICOR 700DX-maleimide (protein)
chain: B2 chain with L33C, C100D
modifications: C2XH11 tag; LICOR 700DX-maleimide label; mutated bf sensitive probe
notes: rIFABP mutein MGI-KR14-14R 18L 27A 30C 38V 60R 73F 106L 115R 117D 131D-C2XH11 labeled with LICOR 700DX-maleimide
- Qs (Rm/Ro): 0.11
- Kd [1]: 41 nM

These reach a lower Kd [1]. Values come first.

- Kd [1]: 22 nM
B5: 54C-C2XH11-700DXM: rIFABP mutein MGI-KR14-14R 18L 27A 38V 54C 60R 73F 106L 115R 117D 131D-C2XH11 labeled with LICOR 700DX-maleimide (protein)
chain: B2 chain with N57C, C100D
modifications: C2XH11 tag; LICOR 700DX-maleimide label; mutated bf sensitive probe
notes: rIFABP mutein MGI-KR14-14R 18L 27A 38V 54C 60R 73F 106L 115R 117D 131D-C2XH11 labeled with LICOR 700DX-maleimide
- Qs (Rm/Ro): 0.48

- Kd [1]: 16 nM
B3: 74C-C2XH11-700DXM: rIFABP mutein MGI-KR14-14R 18L 27A 38V 60R 73F 74C 106L 115R 117D 131D-C2XH11 labeled with LICOR 700DX-maleimide (protein)
chain: B2 chain with D77C, C100D
modifications: C2XH11 tag; LICOR 700DX-maleimide label; mutated bf sensitive probe
notes: rIFABP mutein MGI-KR14-14R 18L 27A 38V 60R 73F 74C 106L 115R 117D 131D-C2XH11 labeled with LICOR 700DX-maleimide
- Qs (Rm/Ro): 0.15

- Kd [1]: 14 nM
- Kd (free Bf sensor with non-responder Mut:SEQ ID NO:1 B-73C in aqueous buffer, excitation 660 nm, 700/805 ratio, fit of equation 1 (FIG. 2)): 12.4 ± 0.4 nM
B1: 76C-C2XH11-700DXM: rIFABP mutein MGI-KR14-14R 18L 27A 38V 60R 73F 76C 106L 115R 117D 131D-C2XH11 labeled with LICOR 700DX-maleimide (protein)
chain: B2 chain with T79C, C100D
modifications: LICOR 700DX-maleimide label; mutated bf sensitive probe
notes: rIFABP mutein MGI-KR14-14R 18L 27A 38V 60R 73F 76C 106L 115R 117D 131D-C2XH11 labeled with LICOR 700DX-maleimide
- Qs (Rm/Ro): 0.04
- Qs which is Rm/Ro [2]: 0.139±0.007
- Rm [2]: 0.42
- Ro [2]: 3.02

From patent US20230053493A1, “ONE STEP METHODS, KITS, AND SYSTEMS FOR THE MEASUREMENT OF CONCENTRATIONS OF UNBOUND BILIRUBIN IN BIOLOGICAL FLUIDS” (priority 2019, published 2023)
